± gives the uncertainty stated by the source.
Experiment: self-splicing fitness, log relative to wild type (ln ratio); higher = more splicing; Tetrahymena group I intron in knt gene, E. coli kanamycin selection, DiMSum; sequences stand for … in CUCUCU…GGAGGGAAAAGUUAUCAGGCAUGCACCUGGUAGCUAGUCUUUAAACCAAUAGAUUGCAUCGGUUUAAAAGGCAAGACCGUCAAAUUGCGGGAAAGGGGUCAACAGCCGUUCAGUACCAAGUCUCAGGGGAAACUUUGAGAUGGCCUUGCAAAGGGUAUGGUAAUAAGCUGACGGACAUGGUCCUAACCACGCAGCCAAGUCCUAAGUCAACAGAUCUUCUGUUGAUAUGGAUGCAGUUCACAGACUAAAUGUCGGUCGGGGAAGAUGUAUUCUUCUCAUAAGAUAUAGUCGGACCUCUCCUUAAUGGGAGCUAGCGGAUGAAGUGAUGCAACACUGGAGCCGCUGGGAACUAAUUUGUAUGCGAAAGUAUAUUGAUUAGUUUUGGAGUACUCGUGGUCG
Method in brief: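 Fitness was computed with DiMSum as the error-weighted combination of replicate fold changes, kanamycin versus none, each normalised to wild type. The library randomised all eight intron nucleotides of the P1ex region, with the intron placed in the knt kanamycin-resistance gene on pET-22b(+) in E. coli BL21(DE3). Six replicate transformations were grown overnight at 37°C or 30°C on LB agar with or without 25 μg/mL kanamycin, plus 100 μg/mL carbenicillin, 50 μM IPTG and 0.2% rhamnose. Pooled colonies were amplicon-sequenced on an Illumina HiSeq 2500.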

Sequence	self-splicing fitness (ln) (30 °C)	self-splicing fitness (ln) (37 °C)
AUUCAGCAAUAUUACGGGCC	-2.57 ± 0.33	-1.82 ± 0.34
AUUCAGCAAUAUUACGUAAG	-0.27 ± 0.069	-0.22 ± 0.093
AUUCAGCAAUAUUACGUACU	0.26 ± 0.079	-0.011 ± 0.095
AUUCAGCAAUAUUACGUAGC	-3.44 ± 0.26	-1.43 ± 0.19
AUUCAGCAAUAUUACGUCCA	-1.19 ± 0.17	-1.55 ± 0.23
AUUCAGCAAUAUUACGUCUC	-1.97 ± 0.14	-0.374 ± 0.13
AUUCAGCAAUAUUACGUUUC	-3.75 ± 0.16	-2.13 ± 0.24
AUUGAGCAAUAUUACGACAC	-2.36 ± 0.19	-1.45 ± 0.22
AUUGAGCAAUAUUACGAUCU	-1.28 ± 0.11	-0.471 ± 0.14
AUUGAGCAAUAUUACGAUGU	-2.26 ± 0.11	-1.41 ± 0.16
AUUGAGCAAUAUUACGCACA	-1.81 ± 0.16	-1.41 ± 0.24
AUUGAGCAAUAUUACGCAUA	-3 ± 0.21	-2.47 ± 0.24
AUUGAGCAAUAUUACGCGUG	-2.28 ± 0.16	-2.32 ± 0.23
AUUGAGCAAUAUUACGCUGG	-2.76 ± 0.34	-1.24 ± 0.25
AUUGAGCAAUAUUACGGAUA	-2.15 ± 0.28	-1.57 ± 0.25
AUUGAGCAAUAUUACGGCAC	-3.48 ± 0.37	-0.518 ± 0.33
AUUGAGCAAUAUUACGGCAG	-2.56 ± 0.18	-1.38 ± 0.27
AUUGAGCAAUAUUACGGGAU	-3.29 ± 0.23	-1.96 ± 0.15
AUUGAGCAAUAUUACGGUAU	-2.06 ± 0.13	-1.59 ± 0.18
AUUGAGCAAUAUUACGGUUC	-3.69 ± 0.33	-2.16 ± 0.25
AUUGAGCAAUAUUACGUCGA	-3.47 ± 0.31	-1.18 ± 0.25
AUUGAGCAAUAUUACGUUCG	-1.65 ± 0.13	-1.14 ± 0.14
AUUGAGCAAUAUUACGUUCU	-2.53 ± 0.14	-1.22 ± 0.15
AUUUAGCAAUAUUACGAAAA	-1.99 ± 0.26	-1.01 ± 0.23
AUUUAGCAAUAUUACGAACU	0.198 ± 0.13	0.211 ± 0.14
AUUUAGCAAUAUUACGAAUU	-3.21 ± 0.35	-1.85 ± 0.38

Sequence	self-splicing fitness (ln) (30 °C)	self-splicing fitness (ln) (37 °C)
AUUUAGCAAUAUUACGACAA	-1.36 ± 0.2	-0.936 ± 0.22
AUUUAGCAAUAUUACGACCC	-1.16 ± 0.28	-0.0521 ± 0.3
AUUUAGCAAUAUUACGAUUU	-0.123 ± 0.12	0.23 ± 0.13
AUUUAGCAAUAUUACGCAAG	-2.59 ± 0.32	-0.488 ± 0.14
AUUUAGCAAUAUUACGCACC	-1.01 ± 0.18	-0.21 ± 0.2
AUUUAGCAAUAUUACGCAUC	-3.58 ± 0.19	-3.27 ± 0.32
AUUUAGCAAUAUUACGCAUU	-1.7 ± 0.11	-0.617 ± 0.13
AUUUAGCAAUAUUACGCCUC		-0.949 ± 0.27
AUUUAGCAAUAUUACGCGAA	-3.01 ± 0.21	-0.549 ± 0.16
AUUUAGCAAUAUUACGCGCG	-1.28 ± 0.2	-0.257 ± 0.22
AUUUAGCAAUAUUACGCGUA	-1.36 ± 0.12	-1 ± 0.14
AUUUAGCAAUAUUACGCUAG	-0.961 ± 0.097	-0.937 ± 0.12
AUUUAGCAAUAUUACGCUAU	-3.64 ± 0.3	-0.748 ± 0.23
AUUUAGCAAUAUUACGCUUC	-2.33 ± 0.5	
AUUUAGCAAUAUUACGGCUU	-0.173 ± 0.12	0.0373 ± 0.15
AUUUAGCAAUAUUACGGGAA	-2.24 ± 0.26	-1.84 ± 0.19
AUUUAGCAAUAUUACGGGAG	-2.97 ± 0.41	-0.342 ± 0.16
AUUUAGCAAUAUUACGGUAA	-1.59 ± 0.17	-1.54 ± 0.17
AUUUAGCAAUAUUACGGUAU	-1.51 ± 0.088	-0.753 ± 0.089
AUUUAGCAAUAUUACGGUCU	-0.911 ± 0.1	-0.391 ± 0.15
AUUUAGCAAUAUUACGUACC	-0.819 ± 0.45	-1.04 ± 0.31
AUUUAGCAAUAUUACGUCUA	-0.829 ± 0.15	0.0394 ± 0.15
AUUUAGCAAUAUUACGUGAA	-2.53 ± 0.14	-0.614 ± 0.12
AUUUAGCAAUAUUACGUUGG	-3.51 ± 0.2	-2.62 ± 0.22
AUUUAGCAAUAUUACGUUUA	-1.97 ± 0.19	-1.07 ± 0.21
CAAAAGCAAUAUUACGAAAU	-3.75 ± 0.17	-2.89 ± 0.23

Sequence	self-splicing fitness (ln) (30 °C)	self-splicing fitness (ln) (37 °C)
CAAAAGCAAUAUUACGAAGA	-2.23 ± 0.28	-1.43 ± 0.17
CAAAAGCAAUAUUACGACCA	-1.95 ± 0.2	-1.48 ± 0.19
CAAAAGCAAUAUUACGACGA	-0.512 ± 0.09	-0.343 ± 0.094
CAAAAGCAAUAUUACGAUAA	-2.29 ± 0.1	-0.871 ± 0.099
CAAAAGCAAUAUUACGAUCA	-1.42 ± 0.12	-1.25 ± 0.12
CAAAAGCAAUAUUACGAUCU	-2.14 ± 0.078	-0.593 ± 0.09
CAAAAGCAAUAUUACGAUUA	-0.53 ± 0.084	-0.187 ± 0.087
CAAAAGCAAUAUUACGCACU	-1.57 ± 0.091	-0.654 ± 0.089
CAAAAGCAAUAUUACGCCCA	-1.69 ± 0.21	-0.538 ± 0.2
CAAAAGCAAUAUUACGCCGG	-0.401 ± 0.098	-0.104 ± 0.13
CAAAAGCAAUAUUACGCCUC	-3.57 ± 0.29	-1.76 ± 0.25
CAAAAGCAAUAUUACGCGGU	-3.58 ± 0.2	-2.46 ± 0.24
CAAAAGCAAUAUUACGCUAA	-3.66 ± 0.25	-2.1 ± 0.21
CAAAAGCAAUAUUACGCUAG	-3.12 ± 0.12	-2.26 ± 0.14
CAAAAGCAAUAUUACGGCAA	-1.96 ± 0.17	-0.93 ± 0.14
CAAAAGCAAUAUUACGGCAC	-2.9 ± 0.14	-2.09 ± 0.15
CAAAAGCAAUAUUACGGCAG	0.126 ± 0.077	-0.164 ± 0.089
CAAAAGCAAUAUUACGGCCU	-1.44 ± 0.14	-1.25 ± 0.12
CAAAAGCAAUAUUACGGCGG	-0.363 ± 0.061	-0.395 ± 0.079
CAAAAGCAAUAUUACGGCUA	-0.892 ± 0.088	-0.809 ± 0.083
CAAAAGCAAUAUUACGGUAA	-1.91 ± 0.12	-1.45 ± 0.15
CAAAAGCAAUAUUACGGUGU	-4.34 ± 0.22	-2.36 ± 0.19
CAAAAGCAAUAUUACGUACC	-2.56 ± 0.15	-1.33 ± 0.15
CAAAAGCAAUAUUACGUUAC	-3.12 ± 0.22	-2.33 ± 0.23
